Assay results reported in PMC6441019, “Prospective discovery of small molecule enhancers of an E3 ligase-substrate interaction” (Nature Communications, 2019).
Where a SMILES comes first, the peptide text is derived from it. Where no end group is shown, it is not given here. [ ]: non-standard residue; d: D form. The star is where a group is joined. pS = N[C@@H](COP(=O)(O)O)C(=O)O; Cbz = O=C(OCc1ccccc1)*

Assays:
[1] = target: T1, S33E/S37A mutant β-catenin (Homo sapiens, UniProt P35222+Q9Y297, S33E/S37A); assay: β-catenin degradation in HEK293T cells stably expressing S33E/S37A β-catenin; format: cell-based; settings: for effect of co-treatment on enhancer-induced degradation of S33E/S37A β-catenin: 5 μM MLN4924 or 10 μM MG132, added 30 min before NRX-252114
T1 construct: Full-length β-catenin (Myc/FLAG-tagged; Origene); expressed in transfected cells
T1 sequence (P35222 whole entry S33E/S37A, one chain of several): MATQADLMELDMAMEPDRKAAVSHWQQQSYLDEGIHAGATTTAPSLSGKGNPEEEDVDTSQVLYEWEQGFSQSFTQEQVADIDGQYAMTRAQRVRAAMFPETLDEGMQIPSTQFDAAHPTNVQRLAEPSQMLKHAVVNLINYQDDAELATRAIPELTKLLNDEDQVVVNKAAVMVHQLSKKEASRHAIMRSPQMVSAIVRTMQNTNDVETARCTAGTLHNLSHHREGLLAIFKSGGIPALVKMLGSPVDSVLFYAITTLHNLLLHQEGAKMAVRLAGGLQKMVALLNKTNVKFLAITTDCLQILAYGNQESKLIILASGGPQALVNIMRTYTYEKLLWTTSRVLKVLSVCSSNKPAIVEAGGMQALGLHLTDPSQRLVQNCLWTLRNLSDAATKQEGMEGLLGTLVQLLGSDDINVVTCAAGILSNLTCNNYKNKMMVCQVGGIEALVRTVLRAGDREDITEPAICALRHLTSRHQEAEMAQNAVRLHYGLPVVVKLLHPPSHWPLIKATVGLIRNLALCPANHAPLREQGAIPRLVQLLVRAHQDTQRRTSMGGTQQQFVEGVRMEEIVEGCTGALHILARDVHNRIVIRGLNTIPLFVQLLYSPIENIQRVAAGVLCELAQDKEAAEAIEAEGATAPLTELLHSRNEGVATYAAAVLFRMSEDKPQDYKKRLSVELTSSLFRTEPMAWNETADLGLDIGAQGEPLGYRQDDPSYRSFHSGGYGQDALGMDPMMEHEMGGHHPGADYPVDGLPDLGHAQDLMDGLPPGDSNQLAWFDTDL
T1 sequence (P63208 whole entry partner, one chain of several): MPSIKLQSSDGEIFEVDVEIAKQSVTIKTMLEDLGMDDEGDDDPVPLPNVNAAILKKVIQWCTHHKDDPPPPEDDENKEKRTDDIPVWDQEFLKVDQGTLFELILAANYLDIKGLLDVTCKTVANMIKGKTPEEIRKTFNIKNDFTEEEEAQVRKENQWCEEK
T1 sequence (Q13616 whole entry partner, one chain of several): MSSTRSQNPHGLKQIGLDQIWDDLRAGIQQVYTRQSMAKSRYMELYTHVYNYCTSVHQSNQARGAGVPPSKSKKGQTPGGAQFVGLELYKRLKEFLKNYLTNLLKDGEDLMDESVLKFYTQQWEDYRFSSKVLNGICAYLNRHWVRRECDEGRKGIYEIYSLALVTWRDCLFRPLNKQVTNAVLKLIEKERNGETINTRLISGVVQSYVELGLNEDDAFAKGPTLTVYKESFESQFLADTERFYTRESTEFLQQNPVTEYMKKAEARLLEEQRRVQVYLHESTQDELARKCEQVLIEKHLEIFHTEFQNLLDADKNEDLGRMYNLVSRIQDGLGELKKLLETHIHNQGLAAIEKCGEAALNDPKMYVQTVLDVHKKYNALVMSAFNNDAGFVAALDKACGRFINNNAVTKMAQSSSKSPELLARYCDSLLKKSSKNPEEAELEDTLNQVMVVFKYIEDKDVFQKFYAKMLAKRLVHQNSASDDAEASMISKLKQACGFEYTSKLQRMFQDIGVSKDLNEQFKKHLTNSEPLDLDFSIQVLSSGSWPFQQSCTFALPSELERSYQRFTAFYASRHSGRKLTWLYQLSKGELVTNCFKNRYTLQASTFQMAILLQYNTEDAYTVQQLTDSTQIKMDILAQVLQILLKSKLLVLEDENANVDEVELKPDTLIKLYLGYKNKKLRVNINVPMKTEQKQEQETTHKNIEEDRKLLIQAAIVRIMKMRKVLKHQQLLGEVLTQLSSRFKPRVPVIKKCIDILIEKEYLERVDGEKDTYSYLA
T1 sequence (P62877 whole entry partner, one chain of several): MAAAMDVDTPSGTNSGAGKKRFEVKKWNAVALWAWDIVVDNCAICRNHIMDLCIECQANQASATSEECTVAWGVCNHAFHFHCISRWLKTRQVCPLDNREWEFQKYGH
T1 sequence (Q15843 1-76 partner limits assumed, one chain of several): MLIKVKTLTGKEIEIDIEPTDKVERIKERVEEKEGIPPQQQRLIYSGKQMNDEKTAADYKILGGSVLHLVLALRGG
Protocol: HEK293T cells were plated in a 10 cm dish in regular growth media (DMEM + 10% FBS) and allowed to adhere to the plate overnight. The following day, cells were transfected with S33E/S37 β-catenin using FuGeneHD transfection reagent. Transfected cells were then selected with media containing 700 μg/ml Geneticin. A pooled population of selected cells were used for all described experiments.
HEK293T cells expressing S33E/S37A β-catenin were plated in six-well plates at a density of 9 × 10^5 cells/well. The following day, cells were incubated with compounds diluted in regular growth media to the appropriate concentration. The final concentration of DMSO for all cell treatments was kept at 0.5% or less. Cell treatments with the Nedd8 inhibitor (MLN4924) and the proteasome inhibitor (MG132) were performed at a final concentration of 5 μM and 10 μM respectively. Cycloheximide treatment was performed at a final concentration of 100 μg/ml.

[2] = target: T2, pSer33/Ser37 β-catenin peptide binding to β-TrCP (Homo sapiens, UniProt P35222+Q9Y297); assay: TR-FRET peptide binding and cooperativity assay, pSer33/Ser37 peptide; settings: 500 μM NRX-1532; 300 pM β-TrCP; read-out: KD pS33/S37
T2 construct: titrating BODIPY-FL-labeled β-catenin peptides (residues 17-48) against 300 pM β-TrCP; 6xHis-SMT3 (N, cleaved yes); made in house; host or cells: E. coli (co-expressed with BirA)
T2 sequence (Q9Y297 1-569 isoform Q9Y297-2, one chain of several): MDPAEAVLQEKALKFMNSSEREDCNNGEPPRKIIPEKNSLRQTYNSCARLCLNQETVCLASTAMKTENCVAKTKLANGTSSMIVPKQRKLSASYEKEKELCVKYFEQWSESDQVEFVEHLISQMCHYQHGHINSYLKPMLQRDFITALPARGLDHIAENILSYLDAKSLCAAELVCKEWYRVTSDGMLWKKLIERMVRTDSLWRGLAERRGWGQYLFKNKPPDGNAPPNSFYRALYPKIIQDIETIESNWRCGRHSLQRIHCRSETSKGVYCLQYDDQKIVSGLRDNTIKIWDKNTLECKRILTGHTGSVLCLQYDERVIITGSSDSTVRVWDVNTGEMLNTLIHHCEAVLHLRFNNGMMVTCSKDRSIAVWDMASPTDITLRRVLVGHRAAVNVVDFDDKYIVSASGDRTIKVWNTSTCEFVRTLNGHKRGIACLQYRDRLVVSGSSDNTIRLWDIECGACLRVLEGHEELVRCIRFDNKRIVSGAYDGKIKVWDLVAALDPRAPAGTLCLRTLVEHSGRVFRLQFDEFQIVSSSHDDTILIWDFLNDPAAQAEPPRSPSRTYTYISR
T2 sequence (P63208 whole entry partner, one chain of several, the tested form may be a part): as the sequence (P63208 whole entry partner, one chain of several) above
Protocol: (§1) Compounds were incubated in a 20 μl reaction volume with 300 pM biotinylated β-TrCP/Skp1 preincubated with 1.2 nM terbium-coupled streptavidin (Cisbio) and BODIPY-FL labeled β-catenin peptides (see figure legends for peptide details) in a white 384-well microplate (Perkin Elmer ProxiPlate), using a PBS buffer containing 0.01% Triton X-100 and 2 mM DTT with 2% final DMSO. […] Following 1-h incubation, plates were read for TR-FRET signal after excitation at 320 nm and read at 520 and 620 nm using an EnVision plate reader (Perkin Elmer). TR-FRET signal was calculated using a 520/620 nm ratio. Binding and enhancement data were fit to a standard Hill equation (Y = Bmin + (Bmax − Bmin)(X^h)/(X^h + EC50^h)) in Prism (GraphPad). Errors are standard error of the fit.

[3] = pKa determination (fast UV); format: physicochemical; settings: methanol:water co-solvent
Protocol: The pKa values were determined using the fast UV (spectrometric) technique. Samples were titrated in triplicate under methanol:water co-solvent conditions (with MeOH:water mixing ratios varied from 1:1 to 1:4) in the pH range 2.0–12.0 at concentrations of 15 to 30 μM and at a temperature of 25 °C. Aqueous pKa values were determined by Yasuda-Shedlovsky extrapolation from the individual determined results.

[4] = target: T3, pSer33/Ser37 β-catenin:β-TrCP interaction (Homo sapiens, UniProt P35222+Q9Y297); assay: SPR binding enhancement assay
T3 construct: titrating BODIPY-FL-labeled β-catenin peptides (residues 17-48) against 300 pM β-TrCP; 6xHis-SMT3 (N, cleaved yes); made in house; host or cells: E. coli (co-expressed with BirA)
T3 sequence (Q9Y297 1-569 isoform Q9Y297-2, one chain of several): as the sequence (Q9Y297 1-569 isoform Q9Y297-2, one chain of several) above
T3 sequence (P63208 whole entry partner, one chain of several, the tested form may be a part): as the sequence (P63208 whole entry partner, one chain of several) above
Protocol: SPR binding assays were performed on a GE Healthcare Biacore T200 using a Series B Biacore Sensor Chip SA. […] 333 nM β-TrCP/Skp1 and titrated compound were preincubated and flowed at a rate of 30 μl/min in 10 mM HEPES, 150 mM NaCl, 0.05% Surfactant P20, 1 mM TCEP, and 2% DMSO at pH 7.4 and 20 °C. Engagement of the ternary complex was assessed with a contact and dissociation time of 120 s. […] Errors are standard error of the fit.

[5] = Solubility (qualitative remark); format: physicochemical
[6] = target: T4, pSer33/S37A β-catenin peptide binding to β-TrCP (Homo sapiens, UniProt P35222+Q9Y297, S37A); assay: TR-FRET binding enhancement assay, pSer33/S37A peptide
T4 construct: titrating BODIPY-FL-labeled β-catenin peptides (residues 17-48) against 300 pM β-TrCP; 6xHis-SMT3 (N, cleaved yes); made in house; host or cells: E. coli (co-expressed with BirA)
T4 sequence (Q9Y297 1-569 isoform Q9Y297-2, stated change not applied): as the sequence (Q9Y297 1-569 isoform Q9Y297-2, one chain of several) above
T4 sequence (P63208 whole entry partner, the tested form may be a part): as the sequence (P63208 whole entry partner, one chain of several) above
T4 sequence (P35222 17-48 S37A limits assumed): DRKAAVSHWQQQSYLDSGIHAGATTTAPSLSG
Protocol: as §1

[7] = target: T5, S33E/S37A β-catenin peptide binding to β-TrCP (Homo sapiens, UniProt P35222+Q9Y297, S33E/S37A); assay: TR-FRET binding enhancement assay, S33E/S37A peptide; settings: 1% binding saturation
T5 construct: titrating BODIPY-FL-labeled β-catenin peptides (residues 17-48) against 300 pM β-TrCP; 6xHis-SMT3 (N, cleaved yes); made in house; host or cells: E. coli (co-expressed with BirA)
T5 sequence (Q9Y297 1-569 isoform Q9Y297-2, stated change not applied): as the sequence (Q9Y297 1-569 isoform Q9Y297-2, one chain of several) above
T5 sequence (P63208 whole entry partner, the tested form may be a part): as the sequence (P63208 whole entry partner, one chain of several) above
T5 sequence (P35222 17-48 S33E/S37A limits assumed): as the sequence (P35222 17-48 S37A limits assumed) above, with S17E counted along it
Protocol: as §1

[8] = target: T6, endogenous S37A mutant β-catenin (Homo sapiens, UniProt P35222+Q9Y297, S37A); assay: Degradation of endogenous S37A β-catenin in TOV-112D cells; format: cell-based
T6 construct: host or cells: TOV-112D
T6 sequence (P35222 whole entry S37A, one chain of several): as the sequence (P35222 whole entry S33E/S37A, one chain of several) above, with E33S counted along it
T6 sequence (P63208 whole entry partner, one chain of several): as the sequence (P63208 whole entry partner, one chain of several) above
T6 sequence (Q13616 whole entry partner, one chain of several): as the sequence (Q13616 whole entry partner, one chain of several) above
T6 sequence (P62877 whole entry partner, one chain of several): as the sequence (P62877 whole entry partner, one chain of several) above
T6 sequence (Q15843 1-76 partner limits assumed, one chain of several): as the sequence (Q15843 1-76 partner limits assumed, one chain of several) above

[9] = target: biotinylated β-TrCP1-avi tag/Skp1 complex (UniProt Q9Y297); assay: FRET or BRET; TR-FRET, no compound: BODIPY-FL β-catenin peptide titrated against 300 pM biotinylated β-TrCP/Skp1 on 1.2 nM terbium-streptavidin; PBS, 0.01% Triton X-100, 2 mM DTT, 2% DMSO; 1 h
[10] = target: Myc/FLAG-tagged S33E/S37A phosphomimetic full-length β-catenin (UniProt P35222)
[11] = target: β-TrCP1 (recombinant β-TrCP/Skp1 complex) (UniProt Q9Y297); assay: fluorescence polarisation titration; settings: sites S33
[12] = target: β-TrCP1 (recombinant β-TrCP/Skp1 complex) (UniProt Q9Y297); assay: TR-FRET peptide titration, no compound; settings: reference: Ser33/S37A peptide; sites S33
[13] = target: β-TrCP1 (recombinant β-TrCP/Skp1 complex) (UniProt Q9Y297); assay: peptide binding assay, type not said; settings: reference: pSer33/pSer37 peptide; sites S37
[14] = target: T7, biotinylated β-TrCP/Skp1 complex (6xHis-SMT3-β-TrCP1-avi tag/Skp1, for TR-FRET) (UniProt Q9Y297-2 1-569; P63208 1-163, biotin on the avi tag (co-expressed with BirA)); assay: AlphaScreen or HTRF; TR-FRET: BODIPY-FL-labeled β-catenin peptides titrated against 300 pM biotinylated β-TrCP/Skp1 on 1.2 nM terbium-coupled streptavidin; PBS, 0.01% Triton X-100, 2 mM DTT, 2% DMSO; 1 h; one-site binding model; no compound; settings: both partners purified
T7 construct: β-TrCP1; Skp1; Held on terbium-coupled streptavidin in the TR-FRET assay; also called β-TrCP complex; source: E. coli, co-expressed from pCDF-Duet1 with BirA and d-biotin, purified (Ni-NTA, ULP1 cleavage, HiTrap SP, SEC); not shown: His6, N-terminal, cleaved; SMT3, N-terminal, cleaved; avi tag, C-terminal, kept
T7 sequence (P63208 whole entry, one chain of several): as the sequence (P63208 whole entry partner, one chain of several) above

β-TrCP = target: T8, β-TrCP (Homo sapiens, UniProt Q9Y297); assay: TR-FRET
T8 chain: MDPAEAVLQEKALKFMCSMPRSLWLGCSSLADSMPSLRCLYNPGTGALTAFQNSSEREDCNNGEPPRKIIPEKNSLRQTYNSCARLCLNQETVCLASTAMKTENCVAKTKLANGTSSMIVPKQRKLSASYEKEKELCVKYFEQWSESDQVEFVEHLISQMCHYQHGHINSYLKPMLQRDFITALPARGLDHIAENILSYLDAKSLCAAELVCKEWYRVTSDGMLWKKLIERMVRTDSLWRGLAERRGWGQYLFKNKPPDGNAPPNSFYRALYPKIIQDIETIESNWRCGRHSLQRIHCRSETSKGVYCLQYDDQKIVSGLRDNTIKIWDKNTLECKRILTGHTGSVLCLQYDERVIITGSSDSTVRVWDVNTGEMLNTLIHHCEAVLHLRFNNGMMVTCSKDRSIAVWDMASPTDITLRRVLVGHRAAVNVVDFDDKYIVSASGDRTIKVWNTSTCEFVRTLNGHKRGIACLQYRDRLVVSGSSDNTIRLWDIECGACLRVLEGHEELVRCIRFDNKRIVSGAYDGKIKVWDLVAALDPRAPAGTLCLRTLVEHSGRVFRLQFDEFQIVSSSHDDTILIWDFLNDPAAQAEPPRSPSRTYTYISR

CC(C)C[C@@H](C=O)NC(=O)[C@H](CC(C)C)NC(=O)[C@H](CC(C)C)NC(=O)OCc1ccccc1 [MG132, reference compound] (Cbz-Leu-Leu-Leu-aldehyde)
effect of co-treatment on enhancer-induced degradation of S33E/S37A β-catenin [1]: completely blocked

NS(=O)(=O)OC[C@@H]1C[C@@H](n2ccc3c(N[C@H]4CCc5ccccc54)ncnc32)C[C@@H]1O [MLN4924, reference compound]
effect of co-treatment on enhancer-induced degradation of S33E/S37A β-catenin [1]: completely blocked

O=C(Nc1cccc(-c2ccn[nH]2)c1)c1ccc(C(F)(F)F)[nH]c1=O [NRX-1532]
Kd [2]: 0.068 µM | pKa [3]: 5.6 | EC50 [4]: 129 ± 33 µM

O=C(Nc1cccc(-c2nnn[nH]2)c1)c1ccc(C(F)(F)F)[nH]c1=O [NRX-1933]
solubility relative to NRX-1532 [5]: more soluble

CN(C)C(=O)c1cccc(NC(=O)c2c(Sc3c(Cl)cccc3Cl)cc(C(F)(F)F)[nH]c2=O)c1 [NRX-103095]
EC50 [6]: 0.163 ± 0.006 µM | EC50 [7]: 6.7 ± 0.7 µM

COc1cc2c(cc1OC)CN(C(=O)c1c(Sc3c(Cl)cccc3Cl)cc(C(F)(F)F)[nH]c1=O)C2 [NRX-252262]
degradation of endogenous S37A mutant β-catenin [8]: did not induce degradation | concentration at which degradation of S33E/S37A mutant β-catenin starts ([1]; HEK293T stable line, 6 h, western): ~ 35 μM

BODIPY-FL-labeled S33E/S37A phosphomimetic β-catenin peptide (residues 17-48) (from UniProt P35222 17-48)
Kd [9]: > 5 µM | fold decrease in binding affinity relative to the pSer33/S37A peptide [9]: > 10 fold

endogenous β-TrCP of HEK293T cells (from UniProt Q9Y297 1-605) (natural protein)
degradation of stably expressed Myc/FLAG S33E/S37A β-catenin in HEK293T cells, NRX-252114 for 6 h, western blot [10]: 50 µM | degradation of stably expressed Myc/FLAG S33E/S37A β-catenin in HEK293T cells, NRX-252262 for 6 h, western blot [10]: 35 µM

β-catenin 17-48 (from UniProt P35222) Ser33/pSer37 peptide
KD ([11]; reference: pSer33/pSer37 peptide): weaker; reference 2 nM

β-catenin 17-48 (from UniProt P35222) pSer33/S37A peptide
binding against the reference [12]: stronger

β-catenin 17-48 (from UniProt P35222) pSer33/Ser37 peptide
binding against the reference ([11]; reference: non-phosphorylated peptide (Ser33/Ser37)): stronger

β-catenin (from UniProt P35222) pSer33/S37A peptide
binding against the reference [13]: weaker

B1: BODIPY-FL-labeled pSer33/S37C β-catenin peptide (residues 17-48) (peptide)
peptide: Ac-CDRKAAVSHWQQQSYLD[pS]GIHCGATTTAPSLSG
modifications: cysteine pairing not given here; also: BODIPY-FL label, site not given here
notes: added N-terminal cysteine of the peptide list, not part of β-catenin 17-48; as the printed 17-48 peptide with this change; also called pSer33/Cys37; pS33/S37C
Kd [14]: 0.154 µM

B2: BODIPY-FL-labeled pSer33/S37F β-catenin peptide (residues 17-48) (peptide)
peptide: Ac-CDRKAAVSHWQQQSYLD[pS]GIHFGATTTAPSLSG
modifications: also: BODIPY-FL label, site not given here
notes: added N-terminal cysteine of the peptide list, not part of β-catenin 17-48; as the printed 17-48 peptide with this change; also called pSer33/Phe37; pS33/S37F
Kd [14]: 0.023 µM

B3: β-catenin peptide (protein)
chain: ATQADLMELDMAMEPDRKAAVSHWQQQSYLDSGIHSGATTTAPSLSGKGNPEEEDVDTSQVLYEWEQGFSQSFTQEQVADIDGQYAMTRAQRVRAAMFPETLDEGMQIPSTQFDAAHPTNVQRLAEPSQMLKHAVVNLINYQDDAELATRAIPELTKLLNDEDQVVVNKAAVMVHQLSKKEASRHAIMRSPQMVSAIVRTMQNTNDVETARCTAGTLHNLSHHREGLLAIFKSGGIPALVKMLGSPVDSVLFYAITTLHNLLLHQEGAKMAVRLAGGLQKMVALLNKTNVKFLAITTDCLQILAYGNQESKLIILASGGPQALVNIMRTYTYEKLLWTTSRVLKVLSVCSSNKPAIVEAGGMQALGLHLTDPSQRLVQNCLWTLRNLSDAATKQEGMEGLLGTLVQLLGSDDINVVTCAAGILSNLTCNNYKNKMMVCQVGGIEALVRTVLRAGDREDITEPAICALRHLTSRHQEAEMAQNAVRLHYGLPVVVKLLHPPSHWPLIKATVGLIRNLALCPANHAPLREQGAIPRLVQLLVRAHQDTQRRTSMGGTQQQFVEGVRMEEIVEGCTGALHILARDVHNRIVIRGLNTIPLFVQLLYSPIENIQRVAAGVLCELAQDKEAAEAIEAEGATAPLTELLHSRNEGVATYAAAVLFRMSEDKPQDYKKRLSVELTSSLFRTEPMAWNETADLGLDIGAQGEPLGYRQDDPSYRSFHSGGYGQDALGMDPMMEHEMGGHHPGADYPVDGLPDLGHAQDLMDGLPPGDSNQLAWFDTDL
modifications: 20 µM NRX-252114
Kd (β-TrCP): 0.18 µM
